Reference: patent US20210363269A1 (ALX ONCOLOGY, published 2021)
Substitutions are numbered along the chain they refer to. Names may count otherwise.

T1: cynomolgus SIRP-α D1 domain (SEQ ID NO:11) (cynomolgus, UniProt Q5TFQ8 30-148 (human entry), limits assumed)
T1 construct: also called cyno1
T1 chain: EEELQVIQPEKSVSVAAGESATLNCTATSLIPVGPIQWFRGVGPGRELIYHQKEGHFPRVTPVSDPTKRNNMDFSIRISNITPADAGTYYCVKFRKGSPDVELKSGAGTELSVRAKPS

T2: BALBc mouse SIRP-α (mouse (BALB/c strain))
T2 chain: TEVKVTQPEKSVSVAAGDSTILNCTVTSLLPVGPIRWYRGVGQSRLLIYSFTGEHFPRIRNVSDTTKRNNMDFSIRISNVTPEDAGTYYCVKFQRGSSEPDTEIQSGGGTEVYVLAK

T3: BL6 mouse SIRP-α (mouse (C57BL/6 strain), UniProt P97797 32-148)
T3 construct: also called C57BL/6
T3 sequence: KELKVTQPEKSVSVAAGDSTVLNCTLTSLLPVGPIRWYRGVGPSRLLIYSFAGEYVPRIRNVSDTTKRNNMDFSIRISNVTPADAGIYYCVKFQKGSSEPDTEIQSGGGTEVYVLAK

T4: NOD mouse SIRP-α (mouse (NOD strain))
T4 chain: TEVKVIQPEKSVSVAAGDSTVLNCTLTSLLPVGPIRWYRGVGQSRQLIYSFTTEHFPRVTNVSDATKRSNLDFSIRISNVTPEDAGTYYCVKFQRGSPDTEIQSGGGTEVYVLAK

B1: antibody 135 variant wt/mut (antibody, human IgG1, V domains shown)
VH: EVQLVESGGGVVQPGGSLRLSCAASGFSFSIYAVSWVRQAPGKGLEWVSTIGADDTYYADSVKGRFTISRDNSKNTLYLQMNSLRAEDTAVYYCAKDSTVGWSGDFFDYWGQGTLVTVSS
VL: EIVLTQSPATLSVSPGERVTFSCRASQNVRSDIAWYQQKPGQAPRLLIYAASSRDTGIPDRFSGSGSGTDFTLTISSLQSEDFGVYYCQQYYDWPPFTFGGGTKVEIK
notes: Human IgG1 with L234A/L235A/G237A/N297A; Labels are in the order VL/VH
B2: 119 wt/wt_M34V (antibody, human IgG1, V domains shown)
VH: B1 VH with E1D, V5L, I31N, Y32F, S35T, K43E, A53S, D54G, G101S, Q112L
VL: EIVLTQSPATLSVSPGERATFSCRASQNVKNDLAWYQQRPGQAPRLLIYAARIRETGIPERFSGSGSGTEFTLTITSLQSEDFAVYYCQQYYDWPPFTFGGGTKVEIK
notes: human IgG1 with L234A, L235A, G237A, N297A
B3: antibody 135 wt/wt (parental) (antibody, human IgG1, V domains shown)
VH: B1 VH with E1D, Q13R, G16E, V34M, K43E, Q112L
VL: B1 VL
notes: Human IgG1 with L234A/L235A/G237A/N297A; Labels are in the order VL/VH; also called AB135a
B4: antibody 135 variant mut/wt (antibody, human IgG1, V domains shown)
VH: B1 VH with E1D, Q13R, G16E, V34M, K43E, Q112L
VL: B1 VL with F21L, D60A
notes: as for B1
B5: 119 wt/wt_M34L (antibody, human IgG1, V domains shown)
VH: DVQLLESGGGVVQPGGSLRLSCAASGFSFSNFALTWVRQAPGEGLEWVSTIGSGDTYYADSVKGRFTISRDNSKNTLYLQMNSLRAEDTAVYYCAKDSTVSWSGDFFDYWGLGTLVTVSS
VL: B2 VL
notes: as for B2
B6: Hum9/AB25_HC_Mutall (antibody, V domains shown)
VH: EVQLVESGGGVVQPGGSLRLSCAASGFTFSSNAMSWVRQAPGKGLEWVAGISSGSDTYYGDSVKGRFTISRDNSKNTLYLQMNSLTAEDTAVYYCARETWNHLFDYWGQGTLVTVSS
VL: SYELTQPPSVSVSPGQTARITCSGGAYSSYYYAWYQQKPGQAPVLVIYSDDKRPSGIPERFSGSSSGTTVTLTISGVQAEDEADYYCGGYDQSSYTNPFGGGTKLTVL

What was measured:
[1] = target: T5, human SIRP-α v1 D1 domain (human, UniProt P78324 31-149); assay: SPR, antibody immobilised on GLC chip
T5 construct: also called human v1; human α v1
Protocol: (§1) All experiments were performed at 25° C. using a SPR-based ProteOn XPR36 biosensor (BioRad, Inc, Hercules, Calif.) equipped with GLC or NLC sensor chips. […] Purification was carried out by standard Protein A affinity column chromatography and eluted antibodies were stored in PBS buffer.
(§2) For the method using GLC chip, the analytes were injected and flowed over anti-SIRPα antibodies immobilized (˜1000 RUs) on GLC chips using Proteon™ Amine Coupling Kit. For the immobilization step, GLC chip was activated with EDAC/Sulpho-NHS 1:1 (Biorad) diluted 1/100 for 300 s at 25 μL/min. Anti-SIRPα antibodies were diluted to 80 nM concentration in 10 mM sodium acetate buffer pH 4.5 and immobilized to the chip at 30 μL/min for 50 s. Chip was inactivated with ethanolamine for 300 s at 25 μL/min. The analytes (e.g., SIRP-α from different species, SIRP-β, SIRP-γ) were injected in a “one-shot” kinetic mode at nominal concentrations of 100, 33, 11, 3.7, 1.2 and 0 nM. Association times were monitored for 90 s at 100 μL/min, and dissociation times were monitored for 1200 s. The surfaces were regenerated with a 2:1 v/v blend of Pierce IgG elution buffer/4M NaCl.
T5 sequence (P78324 31-149 limits assumed): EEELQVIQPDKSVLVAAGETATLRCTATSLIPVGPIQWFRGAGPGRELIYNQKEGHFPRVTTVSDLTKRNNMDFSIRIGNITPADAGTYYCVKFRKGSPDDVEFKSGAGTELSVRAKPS

[2] = target: T1, cynomolgus SIRP-α D1 domain (SEQ ID …); assay: SPR, antibody immobilised on GLC chip
Protocol: as §1, §2

human SIRPγ isoform 1 = target: T6, human SIRPγ isoform 1 (human, UniProt Q9P1W8 29-147); assay: SPR, antibody immobilised on GLC chip
T6 construct: also called sirpg; sirp-g
T6 sequence (Q9P1W8 29-147 limits assumed): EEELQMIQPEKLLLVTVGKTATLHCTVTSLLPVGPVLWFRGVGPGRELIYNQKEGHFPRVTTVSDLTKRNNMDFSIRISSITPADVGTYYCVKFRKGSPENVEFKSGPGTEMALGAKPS
Protocol: as §1, §2

[3] = target: T7, human SIRP-α v2 D1 domain (human); assay: SPR, antibody immobilised on GLC chip
T7 construct: also called human v2; human α v2
Protocol: as §1, §2
T7 sequence (chain, as listed by the source limits assumed): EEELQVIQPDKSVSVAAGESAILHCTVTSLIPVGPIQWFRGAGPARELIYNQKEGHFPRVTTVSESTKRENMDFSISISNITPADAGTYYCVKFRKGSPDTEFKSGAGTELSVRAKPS

[4] = target: T8, human SIRP-α v2 D1 domain (human); assay: SPR, antibody immobilised on GLC chip
T8 construct: biotinylated and captured on avidin in the ELISA; also called human v2
Procedure, shortened: (§3)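 On a ProteOn XPR36 biosensor, Protein A-purified antibodies were amine-coupled to a GLC chip at about ~1000 RU after dilution to 80 nM in 10 mM sodium acetate pH 4.5. SIRP analytes at 100, 33, 11, 3.7, 1.2 and 0 nM were then injected one-shot in PBS pH 7.4 containing 0.01% Tween-20 at 25° C, with 90 s of association at 100 μL/min and 1200 s of dissociation. The dissociation constant (KD) was calculated as kd/ka from a global Langmuir fit of double-referenced data.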

[5] = target: T9, human SIRP-α v1 D1 domain (human, UniProt P78324 31-149); assay: SPR, antibody immobilised on GLC chip
T9 construct: biotinylated and captured on avidin in the ELISA; also called human v1
Procedure, shortened: as §3
T9 sequence (P78324 31-149 limits assumed): as the sequence (P78324 31-149 limits assumed) above

BALBc mouse SIRP-α = target: T2, BALBc mouse SIRP-α; assay: SPR
Procedure, shortened: (§4)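 SIRP analytes at nominal, A280-based concentrations were injected in one-shot kinetic mode over purified antibodies that were amine-coupled to a GLC chip or captured by biotinylated Protein A on an NLC chip of a ProteOn XPR36. All runs were at 25° C in PBS pH 7.4 with 0.01% Tween-20. Apparent ka and kd came from a global simple Langmuir fit of double-referenced data, with KD as their ratio kd/ka.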

BL6 mouse SIRP-α = target: T3, BL6 mouse SIRP-α; assay: SPR
Procedure, shortened: as §4

human SIRP-α v1 = target: T10, human SIRP-α v1 (human, UniProt P78324 31-149); assay: SPR
T10 construct: also called Human v1; Human V1
T10 sequence (P78324 31-149 limits assumed): as above
Procedure, shortened: as §4

NOD mouse SIRP-α = target: T4, NOD mouse SIRP-α; assay: SPR
Procedure, shortened: as §4

Row | Binder | Kd [1] [pM] | Kd [2] [pM] | Kd (human SIRPγ isoform 1) [pM] | Kd [3] [pM] | binding result [4] | binding result [5] | further results
1 | B1 | 184 | 125 | 779 | 19.7 | – | – | –
2 | B2 | – | – | – | – | binds | binds | –
3 | B3 | 151 | 96.9 | 539 | 29 | – | – | –
4 | B4 | 149 | 102 | 522 | 26.6 | – | – | –
5 | B5 | – | – | – | – | binds | binds | –
6 | B6 | – | – | – | – | – | – | Kd (BALBc mouse SIRP-α): 38300 pM; Kd (BL6 mouse SIRP-α): 11500 pM; Kd (human SIRP-α v1): 12.9 pM; Kd (NOD mouse SIRP-α): 61200 pM
